Source: article PMC9019090

Target: FBXW7 (FBXW7α) (UniProt Q969H0)
Assay: Co-IP and reciprocal co-IP, immunoblot
Conditions: reference: Flag-ERRα wild type; sites S19,S22,S26

ERRα (from UniProt P11474) Flag-ERRα 3SA (S19A+S22A+S26A)
binding against the reference: weaker
